Assay results as given in article PMC2952866 (Nucleic Acids Research, 2010).

How the values were obtained:
Assay in all cases: SEC + co-IP
[1] = molecular target: T1, Mcm4 (Saccharomyces cerevisiae, UniProt P30665 1-933)
T1 sequence: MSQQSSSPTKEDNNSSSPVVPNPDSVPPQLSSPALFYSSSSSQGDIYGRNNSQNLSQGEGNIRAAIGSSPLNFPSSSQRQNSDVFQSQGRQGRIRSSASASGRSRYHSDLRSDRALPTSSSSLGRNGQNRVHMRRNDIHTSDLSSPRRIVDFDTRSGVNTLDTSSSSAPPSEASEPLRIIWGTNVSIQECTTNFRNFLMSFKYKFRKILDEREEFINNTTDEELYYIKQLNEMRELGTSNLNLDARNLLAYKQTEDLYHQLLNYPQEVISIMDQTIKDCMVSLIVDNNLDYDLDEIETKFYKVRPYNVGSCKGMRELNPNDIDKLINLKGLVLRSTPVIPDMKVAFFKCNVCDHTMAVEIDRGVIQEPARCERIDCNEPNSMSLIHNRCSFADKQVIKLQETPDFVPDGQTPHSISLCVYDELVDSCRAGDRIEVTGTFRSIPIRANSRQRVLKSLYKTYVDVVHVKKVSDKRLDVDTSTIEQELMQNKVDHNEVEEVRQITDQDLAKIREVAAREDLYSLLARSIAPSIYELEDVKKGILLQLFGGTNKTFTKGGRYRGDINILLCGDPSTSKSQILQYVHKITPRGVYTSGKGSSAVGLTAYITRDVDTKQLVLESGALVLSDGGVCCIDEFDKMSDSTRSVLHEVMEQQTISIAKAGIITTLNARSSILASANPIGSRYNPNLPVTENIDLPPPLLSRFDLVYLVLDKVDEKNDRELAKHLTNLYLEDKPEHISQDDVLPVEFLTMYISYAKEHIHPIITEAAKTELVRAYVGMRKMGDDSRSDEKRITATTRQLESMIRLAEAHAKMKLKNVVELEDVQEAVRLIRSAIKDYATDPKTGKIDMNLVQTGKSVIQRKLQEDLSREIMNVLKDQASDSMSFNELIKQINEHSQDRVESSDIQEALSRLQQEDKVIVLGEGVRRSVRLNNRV

[2] = molecular target: Mcm3 (Saccharomyces cerevisiae, UniProt P24279 1-971)
[3] = molecular target: Mcm6 (Saccharomyces cerevisiae, UniProt P53091 1-1017)
[4] = molecular target: T2, Mcm2 (Saccharomyces cerevisiae, UniProt P29469 1-868)
T2 sequence: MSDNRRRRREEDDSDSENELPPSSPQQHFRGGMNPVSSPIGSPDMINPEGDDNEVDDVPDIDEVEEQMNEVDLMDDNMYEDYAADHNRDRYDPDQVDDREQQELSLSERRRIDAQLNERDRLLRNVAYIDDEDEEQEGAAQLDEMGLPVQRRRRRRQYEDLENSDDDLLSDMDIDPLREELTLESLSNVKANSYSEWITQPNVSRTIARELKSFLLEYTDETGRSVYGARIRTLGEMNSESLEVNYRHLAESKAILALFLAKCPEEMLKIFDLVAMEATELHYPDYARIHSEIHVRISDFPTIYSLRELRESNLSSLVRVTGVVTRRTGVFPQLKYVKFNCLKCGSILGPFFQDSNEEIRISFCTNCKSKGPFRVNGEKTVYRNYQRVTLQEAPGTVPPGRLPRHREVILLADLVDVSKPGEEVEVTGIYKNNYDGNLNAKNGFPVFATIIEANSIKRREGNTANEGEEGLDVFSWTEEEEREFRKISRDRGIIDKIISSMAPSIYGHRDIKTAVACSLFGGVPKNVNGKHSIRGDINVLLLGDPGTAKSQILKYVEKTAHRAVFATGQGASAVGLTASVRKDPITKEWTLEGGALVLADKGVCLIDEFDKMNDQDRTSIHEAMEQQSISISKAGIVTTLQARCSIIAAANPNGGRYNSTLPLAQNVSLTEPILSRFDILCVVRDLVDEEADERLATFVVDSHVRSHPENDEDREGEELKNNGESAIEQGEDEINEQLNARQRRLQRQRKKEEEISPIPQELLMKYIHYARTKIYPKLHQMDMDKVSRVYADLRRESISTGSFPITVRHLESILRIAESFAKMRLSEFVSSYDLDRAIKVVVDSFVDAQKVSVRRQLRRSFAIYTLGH

Measured: binding result

Sequence of Mcm6 (P53091 whole entry): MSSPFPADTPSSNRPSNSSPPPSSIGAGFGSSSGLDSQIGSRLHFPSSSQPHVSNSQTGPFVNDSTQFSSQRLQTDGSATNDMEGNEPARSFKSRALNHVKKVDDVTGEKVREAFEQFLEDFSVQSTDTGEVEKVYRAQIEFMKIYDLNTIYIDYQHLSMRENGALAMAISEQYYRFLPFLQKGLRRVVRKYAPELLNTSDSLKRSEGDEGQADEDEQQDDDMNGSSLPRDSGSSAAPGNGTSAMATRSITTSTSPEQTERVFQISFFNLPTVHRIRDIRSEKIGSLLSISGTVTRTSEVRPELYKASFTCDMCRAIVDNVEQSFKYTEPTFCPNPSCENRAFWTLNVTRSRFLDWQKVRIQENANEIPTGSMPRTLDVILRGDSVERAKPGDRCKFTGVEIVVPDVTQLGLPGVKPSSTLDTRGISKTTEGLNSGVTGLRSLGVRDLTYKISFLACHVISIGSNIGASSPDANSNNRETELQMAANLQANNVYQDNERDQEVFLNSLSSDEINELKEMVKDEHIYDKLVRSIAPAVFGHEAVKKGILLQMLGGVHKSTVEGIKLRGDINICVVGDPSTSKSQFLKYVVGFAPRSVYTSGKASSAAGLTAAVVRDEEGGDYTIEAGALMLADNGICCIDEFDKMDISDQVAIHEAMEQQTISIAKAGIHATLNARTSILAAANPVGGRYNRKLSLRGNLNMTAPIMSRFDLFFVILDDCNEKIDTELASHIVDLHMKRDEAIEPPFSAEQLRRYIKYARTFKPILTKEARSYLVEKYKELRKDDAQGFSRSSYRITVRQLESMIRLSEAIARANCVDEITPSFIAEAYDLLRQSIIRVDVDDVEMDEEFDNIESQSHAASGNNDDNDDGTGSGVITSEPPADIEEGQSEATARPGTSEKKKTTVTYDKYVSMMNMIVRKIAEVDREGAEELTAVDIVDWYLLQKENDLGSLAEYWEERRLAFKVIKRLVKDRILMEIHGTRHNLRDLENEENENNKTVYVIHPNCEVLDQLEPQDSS
Sequence of Mcm3 (P24279 whole entry): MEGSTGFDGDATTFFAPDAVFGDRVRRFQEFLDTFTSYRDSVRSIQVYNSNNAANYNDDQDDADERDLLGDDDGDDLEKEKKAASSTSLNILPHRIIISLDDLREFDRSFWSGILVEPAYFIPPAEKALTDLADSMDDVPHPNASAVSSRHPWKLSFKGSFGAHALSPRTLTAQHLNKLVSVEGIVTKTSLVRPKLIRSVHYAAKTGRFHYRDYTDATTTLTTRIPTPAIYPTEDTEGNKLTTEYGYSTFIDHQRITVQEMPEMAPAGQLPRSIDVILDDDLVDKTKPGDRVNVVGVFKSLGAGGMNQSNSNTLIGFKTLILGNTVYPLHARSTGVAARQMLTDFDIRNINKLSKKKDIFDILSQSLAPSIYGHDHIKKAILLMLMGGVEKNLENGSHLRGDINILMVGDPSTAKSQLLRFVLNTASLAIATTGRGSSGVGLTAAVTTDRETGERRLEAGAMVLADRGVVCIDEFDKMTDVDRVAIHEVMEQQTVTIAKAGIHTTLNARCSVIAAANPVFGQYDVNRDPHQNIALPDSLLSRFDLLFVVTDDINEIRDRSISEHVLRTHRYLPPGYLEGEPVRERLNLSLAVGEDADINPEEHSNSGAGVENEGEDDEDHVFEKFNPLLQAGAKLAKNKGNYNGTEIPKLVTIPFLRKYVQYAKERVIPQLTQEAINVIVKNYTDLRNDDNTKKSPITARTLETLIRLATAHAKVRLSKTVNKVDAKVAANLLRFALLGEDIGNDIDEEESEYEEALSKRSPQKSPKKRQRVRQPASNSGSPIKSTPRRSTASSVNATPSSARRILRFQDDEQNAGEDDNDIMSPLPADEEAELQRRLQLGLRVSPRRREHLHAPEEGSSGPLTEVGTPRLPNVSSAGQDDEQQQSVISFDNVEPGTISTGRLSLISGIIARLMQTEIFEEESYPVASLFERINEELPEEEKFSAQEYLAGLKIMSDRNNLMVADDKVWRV

B1: Mcm7 (natural protein)
chain: MSAALPSIQLPVDYNNLFNEITDFLVTFKQDTLSSDATRNENEDENLDAENIEQHLLEKGPKYMAMLQKVANRELNSVIIDLDDILQYQNEKFLQGTQADDLVSAIQQNANHFTELFCRAIDNNMPLPTKEIDYKDDVLDVILNQRRLRNERMLSDRTNEIRSENLMDTTMDPPSSMNDALREVVEDETELFPPNLTRRYFLYFKPLSQNCARRYRKKAISSKPLSVRQIKGDFLGQLITVRGIITRVSDVKPAVEVIAYTCDQCGYEVFQEVNSRTFTPLSECTSEECSQNQTKGQLFMSTRASKFSAFQECKIQELSQQVPVGHIPRSLNIHVNGTLVRSLSPGDIVDVTGIFLPAPYTGFKALKAGLLTETYLEAQFVRQHKKKFASFSLTSDVEERVMELITSGDVYNRLAKSIAPEIYGNLDVKKALLLLLVGGVDKRVGDGMKIRGDINVCLMGDPGVAKSQLLKAICKISPRGVYTTGKGSSGVGLTAAVMKDPVTDEMILEGGALVLADNGICCIDEFDKMDESDRTAIHEVMEQQTISISKAGINTTLNARTSILAAANPLYGRYNPRLSPLDNINLPAALLSRFDILFLMLDIPSRDDDEKLAEHVTYVHMHNKQPDLDFTPVEPSKMREYIAYAKTKRPVMSEAVNDYVVQAYIRLRQDSKREMDSKFSFGQATPRTLLGIIRLSQALAKLRLADMVDIDDVEEALRLVRVSKESLYQETNKSKEDESPTTKIFTIIKKMLQETGKNTLSYENIVKTVRLRGFTMLQLSNCIQEYSYLNVWHLINEGNTLKFVDDGTMDTDQEDSLVSTPKLAPQTTASANVSAQDSDIDLQDA
binds: [1] | [2] | [3] | [4]
